Assay results reported in US20210230570.

Factor X (FX), P00742, sequence (P00742 whole entry, looked up): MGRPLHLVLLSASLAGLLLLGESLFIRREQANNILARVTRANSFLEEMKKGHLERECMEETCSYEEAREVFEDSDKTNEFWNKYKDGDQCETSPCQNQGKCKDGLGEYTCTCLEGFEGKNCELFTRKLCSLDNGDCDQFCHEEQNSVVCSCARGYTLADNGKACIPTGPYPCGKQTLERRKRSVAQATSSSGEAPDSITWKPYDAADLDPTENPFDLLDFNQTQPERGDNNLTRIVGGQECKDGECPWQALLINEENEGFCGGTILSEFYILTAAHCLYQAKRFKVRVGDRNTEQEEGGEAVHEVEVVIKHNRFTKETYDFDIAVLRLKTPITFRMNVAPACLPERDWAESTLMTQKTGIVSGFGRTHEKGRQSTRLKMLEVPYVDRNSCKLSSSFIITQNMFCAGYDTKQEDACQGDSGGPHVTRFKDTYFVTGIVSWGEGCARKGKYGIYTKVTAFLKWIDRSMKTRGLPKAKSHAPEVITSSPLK
Factor X, P00742, sequence (P00742 whole entry, looked up): as above

B1: FIXa K293E/R338E/R403E (protein)
chain 1: YNSGKLEEFVQGNLERECMEEKCSFEEAREVFENTERTTEFWKQYVDGDQCESNPCLNGGSCKDDINSYECWCPFGFEGKNCELDVTCNIKNGRCEQFCKNSADNKVVCSCTEGYRLAENQKSCEPAVPFPCGRVSVSQTSKLTR
chain 2: VVGGEDAKPGQFPWQVVLNGKVDAFCGGSIVNEKWIVTAAHCVETGVKITVVAGEHNIEETEHTEQKRNVIRIIPHHNYNAAINKYNHDIALLELDEPLVLNSYVTPICIADEEYTNIFLKFGSGYVSGWGRVFHKGRSALVLQYLRVPLVDRATCLESTKFTIYNNMFCAGFHEGGRDSCQGDSGGPHVTEVEGTSFLTGIISWGEECAMKGKYGIYTKVSEYVNWIKEKTKLT
kcat (Factor X, P00742): 0.8 s⁻¹

B2: FIXa-D104N/K106S/Y155F/K247N/N249S/R318Y/R338E/R403E/E410N (protein)
chain 1: YNSGKLEEFVQGNLERECMEEKCSFEEAREVFENTERTTEFWKQYVDGDQCESNPCLNGGSCKDDINSYECWCPFGFEGKNCELDVTCNIKNGRCEQFCKNSANNSVVCSCTEGYRLAENQKSCEPAVPFPCGRVSVSQTSKLTR
chain 2: VVGGEDAKPGQFPWQVVLNGKVDAFCGGSIVNEKWIVTAAHCVETGVKITVVAGEHNIEETEHTEQNRSVIRIIPHHNYNAAINKYNHDIALLELDEPLVLNSYVTPICIADKEYTNIFLKFGSGYVSGWGRVFHKGYSALVLQYLRVPLVDRATCLESTKFTIYNNMFCAGFHEGGRDSCQGDSGGPHVTEVEGTSFLTGIISWGEECAMKGKYGIYTKVSEYVNWIKNKTKLT
kcat/KM (Factor X (FX), P00742): 1.3e+08 M⁻¹ s⁻¹

B3: FIXa variant D203N/F205T/R318Y/E410N (mature FIX numbering) (protein)
chain 1: YNSGKLEEFVQGNLERECMEEKCSFEEAREVFENTERTTEFWKQYVDGDQCESNPCLNGGSCKDDINSYECWCPFGFEGKNCELDVTCNIKNGRCEQFCKNSADNKVVCSCTEGYRLAENQKSCEPAVPFPCGRVSVSQTSKLTR
chain 2: VVGGEDAKPGQFPWQVVLNGKVNATCGGSIVNEKWIVTAAHCVETGVKITVVAGEHNIEETEHTEQKRNVIRIIPHHNYNAAINKYNHDIALLELDEPLVLNSYVTPICIADKEYTNIFLKFGSGYVSGWGRVFHKGYSALVLQYLRVPLVDRATCLRSTKFTIYNNMFCAGFHEGGRDSCQGDSGGPHVTEVEGTSFLTGIISWGEECAMKGKYGIYTKVSRYVNWIKNKTKLT
KM of FX activation by FIXa in the Xase complex (FVIIIa, PC/PS vesicles, Ca2+) (Factor X (FX), P00742): 45.7 nM

B4: FIXa variant Y155F/R318Y/R338E/R403E/E410N (mature FIX numbering) (protein)
chain 1: YNSGKLEEFVQGNLERECMEEKCSFEEAREVFENTERTTEFWKQYVDGDQCESNPCLNGGSCKDDINSYECWCPFGFEGKNCELDVTCNIKNGRCEQFCKNSADNKVVCSCTEGYRLAENQKSCEPAVPFPCGRVSVSQTSKLTR
chain 2: VVGGEDAKPGQFPWQVVLNGKVDAFCGGSIVNEKWIVTAAHCVETGVKITVVAGEHNIEETEHTEQKRNVIRIIPHHNYNAAINKYNHDIALLELDEPLVLNSYVTPICIADKEYTNIFLKFGSGYVSGWGRVFHKGYSALVLQYLRVPLVDRATCLESTKFTIYNNMFCAGFHEGGRDSCQGDSGGPHVTEVEGTSFLTGIISWGEECAMKGKYGIYTKVSEYVNWIKNKTKLT
KM of FX activation by FIXa in the Xase complex (FVIIIa, PC/PS vesicles, Ca2+) (Factor X (FX), P00742): 30.4 nM

B5: FIXa variant D104N/K106S/R318Y/R338E/R403E/E410N (mature FIX numbering) (protein)
chain 1: YNSGKLEEFVQGNLERECMEEKCSFEEAREVFENTERTTEFWKQYVDGDQCESNPCLNGGSCKDDINSYECWCPFGFEGKNCELDVTCNIKNGRCEQFCKNSANNSVVCSCTEGYRLAENQKSCEPAVPFPCGRVSVSQTSKLTR
chain 2: VVGGEDAKPGQFPWQVVLNGKVDAFCGGSIVNEKWIVTAAHCVETGVKITVVAGEHNIEETEHTEQKRNVIRIIPHHNYNAAINKYNHDIALLELDEPLVLNSYVTPICIADKEYTNIFLKFGSGYVSGWGRVFHKGYSALVLQYLRVPLVDRATCLESTKFTIYNNMFCAGFHEGGRDSCQGDSGGPHVTEVEGTSFLTGIISWGEECAMKGKYGIYTKVSEYVNWIKNKTKLT
KM of FX activation by FIXa in the Xase complex (FVIIIa, PC/PS vesicles, Ca2+) (Factor X (FX), P00742): 38.5 nM

B6: FIXa-Y155F/R318Y/R403E/E410N (protein)
chain 1: YNSGKLEEFVQGNLERECMEEKCSFEEAREVFENTERTTEFWKQYVDGDQCESNPCLNGGSCKDDINSYECWCPFGFEGKNCELDVTCNIKNGRCEQFCKNSADNKVVCSCTEGYRLAENQKSCEPAVPFPCGRVSVSQTSKLTR
chain 2: VVGGEDAKPGQFPWQVVLNGKVDAFCGGSIVNEKWIVTAAHCVETGVKITVVAGEHNIEETEHTEQKRNVIRIIPHHNYNAAINKYNHDIALLELDEPLVLNSYVTPICIADKEYTNIFLKFGSGYVSGWGRVFHKGYSALVLQYLRVPLVDRATCLRSTKFTIYNNMFCAGFHEGGRDSCQGDSGGPHVTEVEGTSFLTGIISWGEECAMKGKYGIYTKVSEYVNWIKNKTKLT
kcat/KM (M^-1s^-1), FX activation by FIXa in the Xase complex (Factor X (FX), P00742): 3.6e+07 M⁻¹ s⁻¹

B7: FIXa variant R318Y/R338E/R403E/E410N (mature FIX numbering) (protein)
chain 1: YNSGKLEEFVQGNLERECMEEKCSFEEAREVFENTERTTEFWKQYVDGDQCESNPCLNGGSCKDDINSYECWCPFGFEGKNCELDVTCNIKNGRCEQFCKNSADNKVVCSCTEGYRLAENQKSCEPAVPFPCGRVSVSQTSKLTR
chain 2: VVGGEDAKPGQFPWQVVLNGKVDAFCGGSIVNEKWIVTAAHCVETGVKITVVAGEHNIEETEHTEQKRNVIRIIPHHNYNAAINKYNHDIALLELDEPLVLNSYVTPICIADKEYTNIFLKFGSGYVSGWGRVFHKGYSALVLQYLRVPLVDRATCLESTKFTIYNNMFCAGFHEGGRDSCQGDSGGPHVTEVEGTSFLTGIISWGEECAMKGKYGIYTKVSEYVNWIKNKTKLT
KM of FX activation by FIXa in the Xase complex (FVIIIa, PC/PS vesicles, Ca2+) (Factor X (FX), P00742): 43.2 nM

B8: FIXa R318Y/R338E/R403E/E410N (protein)
chain 1: YNSGKLEEFVQGNLERECMEEKCSFEEAREVFENTERTTEFWKQYVDGDQCESNPCLNGGSCKDDINSYECWCPFGFEGKNCELDVTCNIKNGRCEQFCKNSADNKVVCSCTEGYRLAENQKSCEPAVPFPCGRVSVSQTSKLTR
chain 2: VVGGEDAKPGQFPWQVVLNGKVDAFCGGSIVNEKWIVTAAHCVETGVKITVVAGEHNIEETEHTEQKRNVIRIIPHHNYNAAINKYNHDIALLELDEPLVLNSYVTPICIADKEYTNIFLKFGSGYVSGWGRVFHKGYSALVLQYLRVPLVDRATCLESTKFTIYNNMFCAGFHEGGRDSCQGDSGGPHVTEVEGTSFLTGIISWGEECAMKGKYGIYTKVSEYVNWIKNKTKLT
kcat (Factor X, P00742): 5 s⁻¹

B9: FIXa variant A103N/N105S/Y155F/R318Y/R338E/R403E/E410N (mature FIX numbering) (protein)
chain 1: YNSGKLEEFVQGNLERECMEEKCSFEEAREVFENTERTTEFWKQYVDGDQCESNPCLNGGSCKDDINSYECWCPFGFEGKNCELDVTCNIKNGRCEQFCKNSNDSKVVCSCTEGYRLAENQKSCEPAVPFPCGRVSVSQTSKLTR
chain 2: VVGGEDAKPGQFPWQVVLNGKVDAFCGGSIVNEKWIVTAAHCVETGVKITVVAGEHNIEETEHTEQKRNVIRIIPHHNYNAAINKYNHDIALLELDEPLVLNSYVTPICIADKEYTNIFLKFGSGYVSGWGRVFHKGYSALVLQYLRVPLVDRATCLESTKFTIYNNMFCAGFHEGGRDSCQGDSGGPHVTEVEGTSFLTGIISWGEECAMKGKYGIYTKVSEYVNWIKNKTKLT
KM of FX activation by FIXa in the Xase complex (FVIIIa, PC/PS vesicles, Ca2+) (Factor X (FX), P00742): 50.7 nM

B10: FIXa R318Y/R338E/E410N (protein)
chain 1: YNSGKLEEFVQGNLERECMEEKCSFEEAREVFENTERTTEFWKQYVDGDQCESNPCLNGGSCKDDINSYECWCPFGFEGKNCELDVTCNIKNGRCEQFCKNSADNKVVCSCTEGYRLAENQKSCEPAVPFPCGRVSVSQTSKLTR
chain 2: VVGGEDAKPGQFPWQVVLNGKVDAFCGGSIVNEKWIVTAAHCVETGVKITVVAGEHNIEETEHTEQKRNVIRIIPHHNYNAAINKYNHDIALLELDEPLVLNSYVTPICIADKEYTNIFLKFGSGYVSGWGRVFHKGYSALVLQYLRVPLVDRATCLESTKFTIYNNMFCAGFHEGGRDSCQGDSGGPHVTEVEGTSFLTGIISWGEECAMKGKYGIYTKVSRYVNWIKNKTKLT
kcat (Factor X, P00742): 4.6 s⁻¹

B11: FIXa variant D104N/K106S/Y155F/R318Y/R338E/R403E/E410N (mature FIX numbering) (protein)
chain 1: YNSGKLEEFVQGNLERECMEEKCSFEEAREVFENTERTTEFWKQYVDGDQCESNPCLNGGSCKDDINSYECWCPFGFEGKNCELDVTCNIKNGRCEQFCKNSANNSVVCSCTEGYRLAENQKSCEPAVPFPCGRVSVSQTSKLTR
chain 2: VVGGEDAKPGQFPWQVVLNGKVDAFCGGSIVNEKWIVTAAHCVETGVKITVVAGEHNIEETEHTEQKRNVIRIIPHHNYNAAINKYNHDIALLELDEPLVLNSYVTPICIADKEYTNIFLKFGSGYVSGWGRVFHKGYSALVLQYLRVPLVDRATCLESTKFTIYNNMFCAGFHEGGRDSCQGDSGGPHVTEVEGTSFLTGIISWGEECAMKGKYGIYTKVSEYVNWIKNKTKLT
KM of FX activation by FIXa in the Xase complex (FVIIIa, PC/PS vesicles, Ca2+) (Factor X (FX), P00742): 48 nM

B12: FIXa R318Y/R338E/R403E (protein)
chain 1: YNSGKLEEFVQGNLERECMEEKCSFEEAREVFENTERTTEFWKQYVDGDQCESNPCLNGGSCKDDINSYECWCPFGFEGKNCELDVTCNIKNGRCEQFCKNSADNKVVCSCTEGYRLAENQKSCEPAVPFPCGRVSVSQTSKLTR
chain 2: VVGGEDAKPGQFPWQVVLNGKVDAFCGGSIVNEKWIVTAAHCVETGVKITVVAGEHNIEETEHTEQKRNVIRIIPHHNYNAAINKYNHDIALLELDEPLVLNSYVTPICIADKEYTNIFLKFGSGYVSGWGRVFHKGYSALVLQYLRVPLVDRATCLESTKFTIYNNMFCAGFHEGGRDSCQGDSGGPHVTEVEGTSFLTGIISWGEECAMKGKYGIYTKVSEYVNWIKEKTKLT
kcat (Factor X, P00742): 3.5 s⁻¹

B13: FIXa-Y155F/R338E/R403E/E410N (protein)
chain 1: YNSGKLEEFVQGNLERECMEEKCSFEEAREVFENTERTTEFWKQYVDGDQCESNPCLNGGSCKDDINSYECWCPFGFEGKNCELDVTCNIKNGRCEQFCKNSADNKVVCSCTEGYRLAENQKSCEPAVPFPCGRVSVSQTSKLTR
chain 2: VVGGEDAKPGQFPWQVVLNGKVDAFCGGSIVNEKWIVTAAHCVETGVKITVVAGEHNIEETEHTEQKRNVIRIIPHHNYNAAINKYNHDIALLELDEPLVLNSYVTPICIADKEYTNIFLKFGSGYVSGWGRVFHKGRSALVLQYLRVPLVDRATCLRSTKFTIYNNMFCAGFHEGGEDSCQGDSGGPHVTEVEGTSFLTGIISWGEECAMKGKYGIYTKVSEYVNWIKNKTKLT
% of WT (kcat/KM) (Factor X, P00742): 401%
kcat/KM (Factor X, P00742): 1.8e+08 M⁻¹ s⁻¹

B14: FIXa variant A103N/N105S/R318Y/R338E/R403E/E410N (mature FIX numbering) (protein)
chain 1: YNSGKLEEFVQGNLERECMEEKCSFEEAREVFENTERTTEFWKQYVDGDQCESNPCLNGGSCKDDINSYECWCPFGFEGKNCELDVTCNIKNGRCEQFCKNSNDSKVVCSCTEGYRLAENQKSCEPAVPFPCGRVSVSQTSKLTR
chain 2: VVGGEDAKPGQFPWQVVLNGKVDAFCGGSIVNEKWIVTAAHCVETGVKITVVAGEHNIEETEHTEQKRNVIRIIPHHNYNAAINKYNHDIALLELDEPLVLNSYVTPICIADKEYTNIFLKFGSGYVSGWGRVFHKGYSALVLQYLRVPLVDRATCLESTKFTIYNNMFCAGFHEGGRDSCQGDSGGPHVTEVEGTSFLTGIISWGEECAMKGKYGIYTKVSEYVNWIKNKTKLT
KM of FX activation by FIXa in the Xase complex (FVIIIa, PC/PS vesicles, Ca2+) (Factor X (FX), P00742): 44.7 nM
